Measurements: publication PMC2383916
Like-named read-outs stand apart in the source and are kept apart here.

Columns and labels:
GAL4-CRY2 (mouse) [1] = target: GAL4-CRY2 (mouse) (UniProt Q9R194); assay: two-hybrid; mammalian two-hybrid in cos-7 cells: Gal4 DBD fusion and VP16 fusion co-transfected with pFR-luc and pCMV-lacZ; reporter alone set to 1
GAL4-PER2 (mouse) [2] = target: GAL4-PER2 (mouse) (UniProt O54943); assay: as above
GAL4-CRY1 (mouse) [3] = target: GAL4-CRY1 (mouse) (UniProt P97784); assay: as above
GAL4-CRY2 (mouse) [4] = target: GAL4-CRY2 (mouse) (UniProt Q9R194); assay: two-hybrid; mammalian two-hybrid in HER911 cells: Gal4 DBD fusion and VP16 fusion co-transfected with the GAL4-based luciferase reporter pFR-luc and pCMV-lacZ; luciferase normalised to beta-galactosidase; reporter alone set to 1
GAL4-PER2 (mouse) [5] = target: GAL4-PER2 (mouse) (UniProt O54943); assay: as above
GAL4-CRY1 (mouse) [6] = target: GAL4-CRY1 (mouse) (UniProt P97784); assay: as above
GAL4-BMAL1 (mouse) [7] = assay: two-hybrid; mammalian two-hybrid in cos-7 cells: Gal4 DBD fusion and VP16 fusion co-transfected with pFR-luc and pCMV-lacZ; reporter alone set to 1
[8] = target: GAL4-BMAL1ΔC-term (mouse); assay: two-hybrid; mammalian two-hybrid in HER911 cells: Gal4 DBD fusion and VP16 fusion co-transfected with the GAL4-based luciferase reporter pFR-luc and pCMV-lacZ; luciferase normalised to beta-galactosidase; reporter alone set to 1
[9] = target: GAL4-BMAL1ΔPAS B/C-term (mouse); assay: as above
GAL4-CLOCK (mouse) = GAL4-CLOCK (mouse) (UniProt O08785); assay: as above
GAL4-BMAL1 (mouse) [10] = assay: as above
[11] = target: GAL4-BMAL1ΔC-term (mouse); assay: as above; remark: listed apart in the source
GAL4-BMAL1 (mouse) [12] = assay: as above; remark: listed apart in the source
[13] = target: GAL4-BMAL1ΔHLH/PAS A (mouse); assay: as above

Chain of UniProt O54943 (O54943 whole entry, the tested form may be a part): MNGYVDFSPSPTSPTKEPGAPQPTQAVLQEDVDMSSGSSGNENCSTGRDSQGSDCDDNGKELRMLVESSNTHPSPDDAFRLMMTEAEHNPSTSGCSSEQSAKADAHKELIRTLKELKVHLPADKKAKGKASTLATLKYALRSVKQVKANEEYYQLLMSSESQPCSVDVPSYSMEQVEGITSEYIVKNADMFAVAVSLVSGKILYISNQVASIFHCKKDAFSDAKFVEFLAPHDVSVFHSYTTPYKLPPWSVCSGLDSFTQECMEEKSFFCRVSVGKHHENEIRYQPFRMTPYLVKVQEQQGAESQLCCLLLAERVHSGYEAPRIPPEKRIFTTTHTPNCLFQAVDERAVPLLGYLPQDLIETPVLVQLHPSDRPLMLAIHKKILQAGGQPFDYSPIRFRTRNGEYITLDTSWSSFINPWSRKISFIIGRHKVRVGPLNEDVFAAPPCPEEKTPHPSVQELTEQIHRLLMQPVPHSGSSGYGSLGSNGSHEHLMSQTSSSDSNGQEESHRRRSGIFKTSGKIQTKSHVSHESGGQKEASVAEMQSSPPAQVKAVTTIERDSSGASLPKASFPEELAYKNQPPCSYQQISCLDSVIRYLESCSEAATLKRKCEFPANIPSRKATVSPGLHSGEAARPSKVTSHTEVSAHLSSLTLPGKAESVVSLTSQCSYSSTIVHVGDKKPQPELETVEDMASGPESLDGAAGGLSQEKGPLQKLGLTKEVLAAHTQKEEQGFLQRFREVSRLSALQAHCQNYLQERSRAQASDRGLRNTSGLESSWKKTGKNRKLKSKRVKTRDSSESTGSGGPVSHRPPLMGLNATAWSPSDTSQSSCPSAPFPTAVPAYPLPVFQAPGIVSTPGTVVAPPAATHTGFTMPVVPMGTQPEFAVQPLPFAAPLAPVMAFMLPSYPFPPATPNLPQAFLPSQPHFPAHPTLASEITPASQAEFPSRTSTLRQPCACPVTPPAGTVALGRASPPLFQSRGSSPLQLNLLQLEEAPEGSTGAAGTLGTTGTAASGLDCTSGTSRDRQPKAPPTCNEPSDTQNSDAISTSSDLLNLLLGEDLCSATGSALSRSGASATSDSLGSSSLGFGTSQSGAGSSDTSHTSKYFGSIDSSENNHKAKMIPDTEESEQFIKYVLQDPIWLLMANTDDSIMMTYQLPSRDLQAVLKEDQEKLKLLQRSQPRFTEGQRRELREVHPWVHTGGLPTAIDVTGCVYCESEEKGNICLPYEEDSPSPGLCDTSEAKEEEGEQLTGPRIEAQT
Chain of UniProt O08785 (O08785 whole entry, the tested form may be a part): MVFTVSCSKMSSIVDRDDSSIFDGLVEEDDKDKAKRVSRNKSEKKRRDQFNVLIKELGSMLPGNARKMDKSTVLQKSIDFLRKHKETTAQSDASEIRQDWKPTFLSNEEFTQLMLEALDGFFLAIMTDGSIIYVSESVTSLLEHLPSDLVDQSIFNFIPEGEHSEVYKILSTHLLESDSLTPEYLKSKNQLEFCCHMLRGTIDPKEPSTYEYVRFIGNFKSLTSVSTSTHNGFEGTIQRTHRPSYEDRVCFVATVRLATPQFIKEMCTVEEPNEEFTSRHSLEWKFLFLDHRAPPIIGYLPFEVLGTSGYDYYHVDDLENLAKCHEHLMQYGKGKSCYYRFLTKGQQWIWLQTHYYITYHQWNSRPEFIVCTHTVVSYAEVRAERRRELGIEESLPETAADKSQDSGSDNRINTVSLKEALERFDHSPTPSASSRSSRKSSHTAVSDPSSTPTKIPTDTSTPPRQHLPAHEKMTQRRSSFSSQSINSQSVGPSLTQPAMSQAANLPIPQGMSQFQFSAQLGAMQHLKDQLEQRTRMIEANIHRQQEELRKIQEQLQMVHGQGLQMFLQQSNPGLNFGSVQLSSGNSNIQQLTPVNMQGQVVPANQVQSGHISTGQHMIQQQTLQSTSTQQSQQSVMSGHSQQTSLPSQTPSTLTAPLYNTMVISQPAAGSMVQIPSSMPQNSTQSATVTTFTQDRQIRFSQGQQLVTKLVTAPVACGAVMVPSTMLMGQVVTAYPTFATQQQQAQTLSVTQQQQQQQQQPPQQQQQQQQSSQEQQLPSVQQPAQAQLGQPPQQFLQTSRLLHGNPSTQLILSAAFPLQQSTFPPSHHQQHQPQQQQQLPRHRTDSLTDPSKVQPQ

A fold luciferase activity over reporter alone (GAL4-CRY2 (mouse) [1]) of 125 fold, a fold luciferase activity over reporter alone (GAL4-PER2 (mouse) [2]) of 2900 fold and a fold luciferase activity over reporter alone (GAL4-CRY1 (mouse) [3]) of 450 fold were found for BMAL1-VP16 (natural protein) in this work. For the same molecule, the fold luciferase activity over reporter alone (GAL4-CRY2 (mouse) [4]) was 10 fold, the fold luciferase activity over reporter alone (GAL4-PER2 (mouse) [5]) was 110 fold and the fold luciferase activity over reporter alone (GAL4-CRY1 (mouse) [6]) was 70 fold.

A fold luciferase activity over reporter alone (GAL4-BMAL1 (mouse) [7]) of 200 fold, a fold luciferase activity over reporter alone [8] of 150 fold and a fold luciferase activity over reporter alone [9] of 5 fold were found for “PER2-VP16 (from UniProt O54943 1-1257) (natural protein)” in this work. It also gave a fold luciferase activity over reporter alone (GAL4-CLOCK (mouse)) of 75 fold and a fold luciferase activity over reporter alone (GAL4-BMAL1 (mouse) [10]) of 1000 fold.

A fold luciferase activity over reporter alone (GAL4-PER2 (mouse) [2]) of 55 fold and a fold luciferase activity over reporter alone (GAL4-PER2 (mouse) [5]) of 110 fold were found for “CLOCK-VP16 (from UniProt O08785 1-855) (natural protein)” in this work.

B1: CRY1-VP16 (natural protein)
chain: MGVNAVHWFRKGLRLHDNPALKECIQGADTIRCVYILDPWFAGSSNVGINRWRFLLQCLEDLDANLRKLNSRLFVIRGQPADVFPRLFKEWNITKLSIEYDSEPFGKERDAAIKKLATEAGVEVIVRISHTLYDLDKIIELNGGQPPLTYKRFQTLVSKMEPLEMPADTITSDVIGKCMTPLSDDHDEKYGVPSLEELGFDTDGLSSAVWPGGETEALTRLERHLERKAWVANFERPRMNANSLLASPTGLSPYLRFGCLSCRLFYFKLTDLYKKVKKNSSPPLSLYGQLLWREFFYTAATNNPRFDKMEGNPICVQIPWDKNPEALAKWAEGRTGFPWIDAIMTQLRQEGWIHHLARHAVACFLTRGDLWISWEEGMKVFEELLLDADWSINAGSWMWLSCSSFFQQFFHCYCPVGFGRRTDPNGDYIRRYLPVLRGFPAKYIYDPWNAPEGIQKVAKCLIGVNYPKPMVNHAEASRLNIERMKQIYQQLSRYRGLGLLASVPSNSNGNGGLMGYAPGENVPSCSSSGNGGLMGYAPGENVPSCSGGNCSQGSGILHYAHGDSQQTHSLKQGRSSAGTGLSSGKRPSQEEDAQSVGPKVQRQSSN
A fold luciferase activity over reporter alone (GAL4-BMAL1 (mouse) [7]) of 110 fold, a fold luciferase activity over reporter alone [11] of 50 fold and a fold luciferase activity over reporter alone (GAL4-BMAL1 (mouse) [12]) of 750 fold were found for B1 in this work.

B2: CRY2-VP16 (natural protein)
chain: MAAAAVVAATVPAQSMGADGASSVHWFRKGLRLHDNPALLAAVRGARCVRCVYILDPWFAASSSVGINRWRFLLQSLEDLDTSLRKLNSRLFVVRGQPADVFPRLFKEWGVTRLTFEYDSEPFGKERDAAIMKMAKEAGVEVVTENSHTLYDLDRIIELNGQKPPLTYKRFQALISRMELPKKPAVAVSSQQMESCRAEIQENHDDTYGVPSLEELGFPTEGLGPAVWQGGETEALARLDKHLERKAWVANYERPRMNANSLLASPTGLSPYLRFGCLSCRLFYYRLWDLYKKVKRNSTPPLSLFGQLLWREFFYTAATNNPRFDRMEGNPICIQIPWDRNPEALAKWAEGKTGFPWIDAIMTQLRQEGWIHHLARHAVACFLTRGDLWVSWESGVRVFDELLLDADFSVNAGSWMWLSCSAFFQQFFHCYCPVGFGRRTDPSGDYIRRYLPKLKGFPSRYIYEPWNAPESVQKAAKCIIGVDYPRPIVNHAETSRLNIERMKQIYQQLSRYRGLCLLASVPSCVEDLSHPVAEPGSSQAGSISNTGPRALSSGPASPKRKLEAAEEPPGEELTKRARVTEMPTQEPASKDS
A fold luciferase activity over reporter alone (GAL4-BMAL1 (mouse) [7]) of 70 fold, a fold luciferase activity over Gal4-Bmal1ΔHLH/PAS A alone [13] of 3 fold and a fold luciferase activity over reporter alone (GAL4-BMAL1 (mouse) [12]) of 950 fold were found for B2 in this work.
